Columns and labels:
human PCSK9 = test: PCSK9 siRNA studies in HepG2 cells; type: cell-based
Protocol: Four siRNAs targeting human PCSK9 synthesized by Qiagen (Qiagen, MD) were purchased and tested. The siRNAs were transfected into HepG2 cells at a final concentration of 10 nM, using HiPerFect transfection reagent (Qiagen, MD) at 0.5% final volume. The siRNA that produced the maximum decrease in PCSK9 mRNA and protein expression in HepG2 cells (70% knockdown by Western blot 24 hours post-transfection) was chosen for further experiments. As a negative control, HepG2 cells were transfected with a scrambled siRNA control vector in HiPerFect (both Qiagen, MD). As a positive control, HepG2 cells were transfected with siRNA targeting the constitutively expressed GAPDH gene, using HiPerFect (Qiagen, MD). Western blots against PCSK9 (Caymen Chemicals, MI), LDL receptor (Fitzgerald International, CA) and GAPDH (Sigma, Mo.) were done in control untreated HepG2 cells, cells transfected with the optimal PCSK9 siRNA (Qiagen, MD) and cells treated with human resistin (50 ng/mL) plus PCSK9 siRNA 24 hours post-transfection.
The extent of the role of PCSK9 in the resistin mediated reduction in hepatocyte LDL receptor levels was examined. […] PCSK9 protein levels in hepatocytes were next assessed in response to PCSK9 siRNA administration, with and without resistin. […]

HepG2 cells = test: Oil-Red-O staining of neutral lipid; type: cell-based, human; conditions: 50 ng/mL, 24 hours, versus untreated
Protocol: Cells were stained with Oil-Red-0 to examine the amount of neutral lipid accumulation in the cells as described by Ferre et al. (Am. J. Physiol Gastrointest. Liver Physiol. 296:G553-G562). Briefly, dishes were washed with cold phosphate-buffered saline and fixed in 10% neutral formalin. After 2 changes of propylene glycol, Oil-Red-0 was added with agitation for 7 minutes, followed by washing in 85% propylene glycol. The dishes were then rinsed in distilled water and counterstained with hematoxylin. For each dish, 3 images were photographed, and a representative image is shown.
To determine if the deleterious effects of human resistin extend not only to increased secretion of apoB-containing lipoproteins by human hepatocytes, but also to increased hepatocyte lipid content, as the two processes frequently occur together in such conditions as obesity, insulin resistance and type 2 diabetes mellitus. Oil-Red-O/hematoxylin staining of HepG2 cells either untreated, treated with 100 μM oleate for 24 hours as a positive control, or treated with 50 ng/mL human resistin for 24 hours was performed. […] The increased cell neutral lipid content with resistin treatment was similar in magnitude to that observed with 100 μM oleate treatment.

[1] = test system: primary mouse hepatocytes from wildtype littermates; test: LDL receptor and PCSK9 protein in wild-type mouse hepatocytes; type: cell-based; conditions: wild-type mice hepatocytes, 50 ng/mL, 24 hours
Protocol: Animal ethics approval was received for the mouse protocols to follow. Primary mouse hepatocytes from PCSK9 knockout mice (C57Bl/6 background) or their wildtype littermates were isolated by perfusing the liver via the hepatic portal vein with a 5 mM EGTA in Leffert's Buffer (10 mM Hepes; 3 mM KCl, 0.13 M NaCl, 1 mM NaH2PO4, 10 mM D-glucose) followed by a 0.3 mg/ml collagenase in 0.0279% CaCl2. Cells were then filtered through a 70 uM nylon strainer and centrifuged at 760 rpm for 5 min. The cells were then passed through a CHRM gradient (Invitrogen, NC). Viability of cells ranged from 80 to 95%. […] Mouse LDL receptor and PCSK9 protein in cell lysates were measured via immunoblotting, as described above, using the following primary antibodies: mouse LDL receptor (abcam, MA), mouse PCSK9 (abcam, MA) and mouse GAPDH (Cell Signaling, MA). […]
To then more directly quantify the role of PCSK9 in the resistin mediated reduction in hepatocyte LDL receptor levels, hepatocytes isolated and cultured from wild-type mice were treated with resistin, and compared to resistin-treated hepatocytes from PCSK9 knockout mice.

B1: human resistin: recombinant lyophilized purified human resistin (Calbiochem); cysteine-rich cytokine, single 12 kDa band (protein)
chain: KTLCSMEEAINERIQEVAGSLIFRAISSIGLECQSVTSRGDLATCPRGFAVTGCTCGSACGSWDVRAETTCHCQCAGMDWTGARCCRVQP
effect on LDL receptor elevation induced with PCSK9 siRNA (human PCSK9; resistin 50 ng/mL plus PCSK9 siRNA): reversed
cellular PCSK9 levels compared with siRNA treatment alone (human PCSK9; resistin plus PCSK9 siRNA): enhanced
hepatocyte neutral lipid content (HepG2 cells): clear increase
PCSK9 levels [1]: increased PCSK9 levels significantly
decrease in LDL receptor protein levels compared with untreated hepatocytes [1]: 40%

— US20130252987A1, “METHOD OF REGULATING PLASMA LIPOPROTEINS” (MCMASTER UNIVERSITY, priority 2010, published 2013)
